Where two headings read alike, the source gives them in different places.
B1: Vps35p (natural protein)
chain: MAYADSPENAIAVIKQRTALMNRCLSQHKLMESLQHTSIMLTELRNPNLSPKKYYELYVIIFDSLTNLSTYLIENHPQNHHLADLYELVQYTGNVVPRLYLMITVGTSYLTFNEAPKKEILKDMIEMCRGVQNPIRGLFLRYYLSQRTKELLPEDDPSFNSQFIMNNFIEMNKLWVRLQHQGPLRERETRTRERKELQILVGSQLVRLSQIIDDNFQMYKQDILPTILEQVIQCRDLVSQEYLLDVICQVFADEFHLKTLDTLLQTTLHLNPDVSINKIVLTLVDRLNDYVTRQLEDDPNATSTNAYLDMDVFGTFWDYLTVLNHERPDLSLQQFIPLVESVIVLSLKWYPNNFDNLNKLFELVLQKTKDYGQKNISLESEHLFLVLLSFQNSKLQLTSSTTAPPNSPVTSKKHFIFQLISQCQAYKNILALQSISLQKKVVNEIIDILMDREVEEMADNDSESKLHPPGHSAYLVIEDKLQVQRLLSICEPLIISRSGPPANVASSDTNVDEVFFNRHDEEESWILDPIQEKLAHLIHWIMNTTSRKQTMKNKIQFSLEAQLEILLLIKSSFIKGGINVKYTFPAIITNFWKLMRKCRMIQEYLLKKRPDNKTLLSHYSNLLKQMFKFVSRCINDIFNSCNNSCTDLILKLNLQCAILADQLQLNEISYDFFSQAFTIFEESLSDSKTQLQALIYIAQSLQKTRSLYKEAYYDSLIVRCTLHGSKLLKKQDQCRAVYLCSHLWWATEISNIGEEEGITDNFYRDGKRVLECLQRSLRVADSIMDNEQSCELMVEILNRCLYYFIHGDESETHISIKYINGLIELIKTNLKSLKLEDNSASMITNSISDLHITGENNVKASSNADDGSVITDKESNVAIGSDGTYIQLNTLNGSSTLIRGVVATASGSKLLHQLKYIPIHHFRRTCEYIESQREVDDRFKVIYV

How the values were obtained:
Assay in all cases: cross-linking + co-IP
[1] = target: Vps35p (S. cerevisiae (endogenous in strain AHY63)) (UniProt P34110)
A-ALP (S. cerevisiae) [2] = target: A-ALP (S. cerevisiae)
A-ALP (S. cerevisiae) [3] = target: A-ALP (S. cerevisiae); remark: listed apart in the source
A-ALP (S. cerevisiae) [4] = target: A-ALP (S. cerevisiae); remark: listed apart in the source

Row | Molecule | percent of A-ALP immunoprecipitated by anti-Vps35p after cross-linking [1] [%] | percent of total Vps35p cross-linked (A-ALP (S. cerevisiae) [2]) [%] | percent of total Vps35p cross-linked (A-ALP (S. cerevisiae) [3]) [%] | percent of total Vps35p cross-linked (A-ALP (S. cerevisiae) [4]) [%]
1 | A-ALP | 5 |  |  | 
2 | B1 |  | 26 | 10 | 16
